Data from patent US20030147861A1, “Compounds and methods for the modulation of immune responses” (Genesis Research and Development Corporation Limited, priority 2001, published 2003).
“Also recorded” adds a separate entry of the source.

Tests used:
[1] = system: TLR2, TLR4 and CD14 on THP-1 cells (IL-12p40, TNFα, IL-10 production); assay: Cytokine production by THP-1 cells pre-treated with mAbs to TLR2, TLR4 or CD14 and cultured with M. vaccae derivatives (ELISA); assay type: cell-based, human; details: mAb pre-treatment 60 minutes, 0.32-1000 μg/mL; stimulus 5 μg/mL, 24 hours
Protocol: In subsequent experiments, the effect of antibodies to TLR2, TLR4 and CD14 on the production of IL-12p40, IL-10 and TNF-α in THP-1 cells in response to M. vaccae derivatives was examined as follows.
Prior to culture with M. vaccae derivatives, 50 μL of THP-1 cells in cRPMI-10 were pre-treated in duplicate microplate wells with 50 μL of serially diluted Functional Grade mabs to human TLR2 (clone TL2.1, IgG2a isotype, eBioscience cat. no. 16-9922-82), TLR4 (clone HTA125, IgG2a isotype, eBioscience cat. no. 16-9927-82), or CD14 (clone RM052, IgG2a isotype, Coulter cat. no. IM0643), with a cocktail of all three antibodies or with control mAb (clone AcV1, IgG2a isotype, eBioscience cat. no. 16-4724-85), with each mAb used at a final concentration of 1000 μg/mL, 200 μg/mL, 40 μg/mL, 8.0 μg/mL, 1.60 μg/mL, or 0.32 μg/mL, or with no mAb. Pretreatment of cells with mAbs was for 60 minutes in a water-jacketed, humidified incubator at 37° C. supplied with 5% CO2 in air.
At the end of the 24-hour incubation period, the microplates were centrifuged at 200×g for 5 minutes and the supernatants collected and transferred to a sterile 96-well round-bottom plate.
IL-12p40, TNFα, and IL-10 content in the microculture supernatants was determined by sandwich ELISA using commercially available sets according to the manufacturer's recommendations. […]

[2] = system: CD40, CD80 and CD86 on dendritic cells; assay type: cell-based, human
[3] = system: popliteal lymph node cells; assay: Proliferation of lymph node cells from GV protein-immunized mice; assay type: cell-based, female BALB/cByJ mice; details: lymph node cells of mice immunized with 10 μg of the same GV protein in IFA
Protocol: (§1) The immunogenicity of Mycobacterium vaccae recombinant proteins (referred to herein as GV recombinant proteins) was tested by injecting female BALB/cByJ mice in each hind foot-pad with 10 μg of recombinant GV proteins emulsified in incomplete Freund's adjuvant (IFA). Control mice received phosphate buffered saline in IFA. The draining popliteal lymph nodes were excised 10 days later and the cells obtained therefrom were stimulated with the immunizing GV protein and assayed for proliferation by measuring the uptake of tritiated thymidine. The amount of interferon gamma (IFNγ) produced and secreted by these cells into the culture supernatants was assayed by standard enzyme-linked immunoassay.

[4] = system: CD40, CD80 and CD86 on B cells; assay: CD40, CD80 and CD86 expression on B cells (3 color flow cytometry); assay type: cell-based, human; details: 20 ug/ml, 48 hours, vs non-stimulated cells
Source text: (§2) Stimulated cells were harvested and analyzed for up-regulation of CD40, CD80 and CD86 using 3 color flow cytometric analysis. Tables 16, 17 and 18 show the fold increase in mean fluorescence intensity from control (non-stimulated cells) for dendritic cells, monocytes, and B cells, respectively.

[5] = system: CD69 on αβT cells, γδT cells and NK cells; assay type: cell-based, human
[6] = system: dendritic cells with allogeneic T cells; assay: Dendritic cell mixed lymphocyte reaction (MLR) assay; assay type: cell-based; details: 20 μg/ml for 18-20 hours, then allogeneic T cells
Protocol: The ability of GV-23 to enhance dendritic cell function as antigen presenting cells was determined by mixed lymphocyte reaction (MLR) assay. Purified dendritic cells were cultured in medium alone or with GV-23 (20 μg/ml) for 18-20 hours and then stimulated with allogeneic T cells (2×10^5 cells/well). After 3 days of incubation, (^3H)-thymidine was added. Cells were harvested 1 day later and the uptake of radioactivity was measured.

[7] = system: CD83 and CD80 on purified dendritic cells; assay: Dendritic cell maturation: CD83 and CD80 expression (flow cytometry); assay type: cell-based; details: GV-23 20 μg/ml or LPS 10 μg/ml, 20 hour, mean ± SD (n = 3)
Protocol: The effect of the recombinant M. vaccae protein GV-23 on the maturation and function of dendritic cells was examined as follows.
Purified dendritic cells (5×10^4−10^5 cells/ml) were stimulated with GV-23 (20 μg/ml) or LPS (10 μg/ml) as a positive control. Cells were cultured for 20 hour and then analyzed for CD83 (a maturation marker) and CD80 expression by flow cytometry. Non-stimulated cells were used as a negative control.

[8] = system: IL-1β, TNF-α, IL-12 and IFN-γ production in PBMC; assay: Cytokine production in PBMC from normal donors (ELISA); assay type: cell-based, human
[9] = system: CD40, CD80 and CD86 on monocytes; assay: CD40, CD80 and CD86 expression on monocytes (3 color flow cytometry); assay type: cell-based, human; details: 20 ug/ml, 48 hours, vs non-stimulated cells
Source text: as §2

[10] = system: IFNγ production by lymph node cells; assay: IFNγ production by lymph node cells from GV protein-immunized mice (enzyme-linked immunoassay); assay type: cell-based, female BALB/cByJ mice; details: lymph node cells of mice immunized with the same GV protein
Protocol: as §1

[11] = dendritic cells, 20 ug/ml, 48 hours, vs non-stimulated cells
[12] = Dose of GV protein used in vitro 2 μg/ml
[13] = Dose of GV protein used in vitro 50 μg/ml

For “TLR2 mAb: Functional Grade mAb to human TLR2, clone TL2.1, IgG2a isotype (eBioscience) [reference compound]”, the “inhibition of M. vaccae-, AVAC- and DD-M. vaccae-induced production of IL-12p40 by THP-1 cells” value [1] was “inhibited by TLR2 and CD14 mAbs in a dose-dependent fashion”.

B1: GV-23: recombinant M. vaccae antigen, amino acid sequence SEQ ID NO: 38 (protein, listed as Mycobacterium vaccae)
chain: VIEIDHVTKRFGDYLAVADADFSIAPGEFFSMLGPSGCGKTTTLRMIAGFETPTEGAIRLEGADVSRTPPNKRNVNTVFQHYALFPHMTVWDNVAYGPRSKKLGKGEVRKRVDELLEIVRLTEFAERRPAQLSGGQQQRVALARALVNYPSALLLDEPLGALDLKLRHVMQFELKRIQREVGITFIYVTHDQEEALTMSDRIAVMNAGNVEQIGSPTEIYDRPATVFVASFIGQANLWAGRCTGRSNRDYVEIDVLGSTLKARPGETTIEPGGHATLMVRPERIRVTPGSQDAPTGDVACVRATVTDLTFQGPVVRLSLAAPDDSTVIAHVGPEQDLPLLRPGDDVYVSWAPEASLVLPGDDIPTTEDLEEMLDDS
With B1 the “CD40, CD80 and CD86 expression in dendritic cells, comparison with adjuvants” value [2] was “significant up-regulation of CD40, CD80 and CD86”, the “CD40, CD80 and CD86 expression on dendritic cells” value ([2]; 20 ug/ml, 48 hours, T cell-depleted PBMC) was “highest levels of expression” and the “CD40 expression, fold increase in mean fluorescence intensity from control” value (“CD40 expression, fold increase” for short) [2, 11] was 6.0 fold. The “CD80 expression, fold increase in mean fluorescence intensity from control” value (shortened to “CD80 expression, fold increase”) [2, 11] was 4.5 fold, the “CD86 expression, fold increase in mean fluorescence intensity from control” value (“CD86 expression, fold increase” below) [2, 11] was 1.8 fold and the “Proliferation (cpm)” value ([3]; Dose of GV protein used in vitro 0.08 μg/ml) was 7,393 ± 2,188 cpm. For the same molecule, the “Proliferation (cpm)” value [3, 12] was 15,423 ± 2,858 cpm, the “Proliferation (cpm)” value [3, 13] was 35,598 ± 1,330 cpm and the “CD40 expression, fold increase” value [4] was 1.2 fold. The “CD80 expression, fold increase” value [4] was 1.1 fold, the “CD86 expression, fold increase” value [4] was 1.4 fold and the “CD69 expression on NK cells, comparison with adjuvants” value [5] was “induced CD69 expression on NK cells”. For the same molecule, the “percentage of αβT cells expressing CD69” value ([5]; PBMC from normal donors, 20 ug/ml, 24 hours, control 3.8) was 5.8%, the “percentage of NK cells expressing CD69” value ([5]; PBMC from normal donors, 20 ug/ml, 24 hours, control 4.8) was 46.8% and the “percentage of γδT cells expressing CD69” value ([5]; PBMC from normal donors, 20 ug/ml, 24 hours, control 6.2) was 10.0%. For the same molecule, the “dendritic cell mixed lymphocyte reaction ((3H)-thymidine uptake)” value [6] was “enhances dendritic cell mixed lymphocyte reaction”, the “% CD80-positive dendritic cells” value ([7]; control 9 ± 6.6) was 24.7 ± 14.2% and the “% CD83-positive dendritic cells” value ([7]; control 15 ± 8) was 35 ± 13.2%. The “production of IL-1β, TNF-α, IL-12 and IFN-γ by PBMC” value [8] was “stimulate the production of IL-1β, TNF-α and IL-12; also recorded: induced significant levels of the four cytokines examined”, the “IL-1β production by PBMC relative to known adjuvants” value ([8]; GV-23 20 μg/ml) was “higher levels of IL-1β production being seen with GV-23 than with any of the known adjuvants” and the “CD40 expression, fold increase” value [9] was 2.3 fold. The “CD80 expression, fold increase” value [9] was 1.5 fold, the “CD86 expression, fold increase” value [9] was 0.7 fold and the “IFNγ” value [10, 12] was 9.17 ± 1.51 ng/mL. The “IFNγ” value ([10]; Dose of GV protein used in vitro 10 μg/ml) was 30.70 ± 4.48 ng/mL and the “IFNγ” value [10, 13] was 59.67 ± 14.88 ng/mL.
